According to patent EP4527855A2:

Legend:
[1] = molecular target: 28mer peptide of the CXCR5 antigen; experiment: Antigen-ELISA on the 28mer CXCR5 peptide, relative EC50 against the standard; DS in PBS, 1 month at 25°C
[2] = molecular target: 28mer peptide of the CXCR5 antigen; experiment: Antigen ELISA, relative EC50 against the reference; 100 mg/mL formulation, 1 month at -20°C
[3] = molecular target: 28mer peptide of the CXCR5 antigen; experiment: Antigen ELISA, relative EC50 against the reference; 100 mg/mL formulation, 6 months at +5°C
[4] = molecular target: 28mer peptide of the CXCR5 antigen; experiment: Antigen-ELISA on the 28mer CXCR5 peptide, relative EC50 against the standard; DS in PBS, 3 months at 25°C
[5] = molecular target: 28mer peptide of the CXCR5 antigen; experiment: Antigen ELISA, relative EC50 against the reference; 100 mg/mL formulation, 3 months at +5°C
[6] = molecular target: 28mer peptide of the CXCR5 antigen; experiment: Antigen ELISA, relative EC50 against the reference; 100 mg/mL formulation, 1 month at +5°C
[7] = molecular target: 28mer peptide of the CXCR5 antigen; experiment: Antigen-ELISA on the 28mer CXCR5 peptide, relative EC50 against the standard; DS in PBS, 1 month at 5°C
[8] = molecular target: 28mer peptide of the CXCR5 antigen; experiment: Antigen ELISA, relative EC50 against the reference; 100 mg/mL formulation, 12 months at +5°C
[9] = molecular target: 28mer peptide of the CXCR5 antigen; experiment: Antigen-ELISA on the 28mer CXCR5 peptide, relative EC50 against the standard; DS in PBS, 1 month at -20°C
[10] = molecular target: 28mer peptide of the CXCR5 antigen; experiment: Antigen-ELISA on the 28mer CXCR5 peptide, relative EC50 against the current antibody standard; DS in PBS, release
[11] = molecular target: 28mer peptide of the CXCR5 antigen; experiment: Antigen ELISA, relative EC50 against the reference; 100 mg/mL formulation, 6 months at -20°C
[12] = molecular target: 28mer peptide of the CXCR5 antigen; experiment: Antigen ELISA, relative EC50 against the reference; 100 mg/mL formulation, -20°C study, initial
[13] = molecular target: 28mer peptide of the CXCR5 antigen; experiment: Antigen ELISA, relative EC50 against the reference; 100 mg/mL formulation, 18 months at -20°C
[14] = molecular target: 28mer peptide of the CXCR5 antigen; experiment: Antigen ELISA, relative EC50 against the reference; 100 mg/mL formulation, +5°C study, initial
[15] = molecular target: 28mer peptide of the CXCR5 antigen; experiment: Antigen ELISA, relative EC50 against the reference; 100 mg/mL formulation, 6 months at +25°C/60% RH
[16] = molecular target: 28mer peptide of the CXCR5 antigen; experiment: Antigen ELISA, relative EC50 against the reference; 100 mg/mL formulation, 1 month at +25°C/60% RH
[17] = molecular target: 28mer peptide of the CXCR5 antigen; experiment: Antigen-ELISA on the 28mer CXCR5 peptide, relative EC50 against the standard; DS in PBS, 3 months at -20°C
[18] = molecular target: 28mer peptide of the CXCR5 antigen; experiment: Antigen ELISA, relative EC50 against the reference; 100 mg/mL formulation, +25°C/60% RH study, initial
[19] = molecular target: 28mer peptide of the CXCR5 antigen; experiment: Antigen ELISA, relative EC50 against the reference; 100 mg/mL formulation, 9 months at -20°C
[20] = molecular target: 28mer peptide of the CXCR5 antigen; experiment: Antigen ELISA, relative EC50 against the reference; 100 mg/mL formulation, 9 months at +5°C
[21] = molecular target: 28mer peptide of the CXCR5 antigen; experiment: Antigen ELISA, relative EC50 against the reference; 100 mg/mL formulation, 18 months at +5°C
[22] = molecular target: 28mer peptide of the CXCR5 antigen; experiment: Antigen ELISA, relative EC50 against the reference; 100 mg/mL formulation, 3 months at +25°C/60% RH
[23] = molecular target: 28mer peptide of the CXCR5 antigen; experiment: Antigen-ELISA on the 28mer CXCR5 peptide, relative EC50 against the standard; DS in PBS, 3 months at 5°C
[24] = molecular target: 28mer peptide of the CXCR5 antigen; experiment: Antigen ELISA, relative EC50 against the reference; 100 mg/mL formulation, 3 months at -20°C
[25] = molecular target: 28mer peptide of the CXCR5 antigen; experiment: Antigen ELISA, relative EC50 against the reference; 100 mg/mL formulation, 15 months at +5°C
[26] = molecular target: 28mer peptide of the CXCR5 antigen; experiment: Antigen ELISA, relative EC50 against the reference; 100 mg/mL formulation, 12 months at -20°C

Ag-ELISA EC50 % (relative to standard) [1]: 106%
Potency (Antigen ELISA), EC50 value in comparison to reference [2]: 107%
Potency (Antigen ELISA), EC50 value in comparison to reference [3]: 97%
Ag-ELISA EC50 % (relative to standard) [4]: 108%
Potency (Antigen ELISA), EC50 value in comparison to reference [5]: 95%
Potency (Antigen ELISA), EC50 value in comparison to reference [6]: 105%
Ag-ELISA EC50 % (relative to standard) [7]: 83%
Potency (Antigen ELISA), EC50 value in comparison to reference [8]: 93%
Ag-ELISA EC50 % (relative to standard) [9]: 132%
Ag-ELISA EC50 % (relative to standard) [10]: 100%
Potency (Antigen ELISA), EC50 value in comparison to reference [11]: 96%
Potency (Antigen ELISA), EC50 value in comparison to reference [12]: 75%
Potency (Antigen ELISA), EC50 value in comparison to reference [13]: 127%
Potency (Antigen ELISA), EC50 value in comparison to reference [14]: 75%
Potency (Antigen ELISA), EC50 value in comparison to reference [15]: 104%
Potency (Antigen ELISA), EC50 value in comparison to reference [16]: 121%
Ag-ELISA EC50 % (relative to standard) [17]: 93%
Potency (Antigen ELISA), EC50 value in comparison to reference [18]: 75%
Potency (Antigen ELISA), EC50 value in comparison to reference [19]: 101%
Potency (Antigen ELISA), EC50 value in comparison to reference [20]: 92%
Potency (Antigen ELISA), EC50 value in comparison to reference [21]: 119%
Potency (Antigen ELISA), EC50 value in comparison to reference [22]: 96%
Ag-ELISA EC50 % (relative to standard) [23]: 112%
Potency (Antigen ELISA), EC50 value in comparison to reference [24]: 84%
Potency (Antigen ELISA), EC50 value in comparison to reference [25]: 114%
Potency (Antigen ELISA), EC50 value in comparison to reference [26]: 96%
B1: Lead CXCR5 Antibody (humanized IgG4 anti-CXCR5 antibody comprising a heavy chain of SEQ ID NO: 25 and a light chain of SEQ ID NO: 26) (antibody, V domains shown)
VH: QVQLKESGPGLVAPSESLSITCTVSGFSLIDYGVNWIRQPPGKGLEWLGVIWGDGTTYYNPSLKSRLSISKDNSKSQVFLKVTSLTTDDTAMYYCARIVYWGQGTLVTVSA
VL: DIVMTQAAPSVAVTPGASVSISCRSSKSLLHSSGKTYLYWFLQRPGQSPQLLIYRLSSLASGVPDRFSGSGSGTAFTLRISRVEAEDVGVYYCMQHLEYPYTFGGGTKLEIKR
